Values joined by “and” are separate entries in the source; they are usually repeats but may differ in a detail not shown here. Identical values can stand only once.
T1: Raji B cell line (Homo sapiens, UniProt P15391)
T1 construct: the CD19 protein is expressed on the surface of tumor cell lines of B cell origin; host or cells: Raji (human Burkitt's lymphoma B cell line)
T1 sequence (P15391 20-556): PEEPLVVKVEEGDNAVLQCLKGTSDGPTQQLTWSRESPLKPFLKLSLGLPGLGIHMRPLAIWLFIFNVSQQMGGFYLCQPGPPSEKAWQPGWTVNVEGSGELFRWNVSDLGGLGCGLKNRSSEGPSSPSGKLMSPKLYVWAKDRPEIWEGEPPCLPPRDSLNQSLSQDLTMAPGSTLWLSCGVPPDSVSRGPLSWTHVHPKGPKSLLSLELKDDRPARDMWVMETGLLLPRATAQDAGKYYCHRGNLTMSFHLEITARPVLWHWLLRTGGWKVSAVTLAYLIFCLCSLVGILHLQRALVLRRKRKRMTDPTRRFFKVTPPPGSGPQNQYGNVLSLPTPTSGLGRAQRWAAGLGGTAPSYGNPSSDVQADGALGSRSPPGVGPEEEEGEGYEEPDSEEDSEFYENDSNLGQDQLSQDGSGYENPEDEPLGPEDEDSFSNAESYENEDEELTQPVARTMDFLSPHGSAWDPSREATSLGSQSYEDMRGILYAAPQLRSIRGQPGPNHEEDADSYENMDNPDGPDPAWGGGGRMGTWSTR


What was measured:
[1] = target: T1, Raji B cell line; experiment: Flow cytometry binding to Raji cells
Procedure: Binding of the CD19 HuMAbs by flow cytometry to the B cell tumor lines Raji and Daudi, or to a CHO-CD19 transfected cell line was assessed. CHO cells were transfected with an expression plasmid containing the full length cDNA encoding the transmembrane form of CD19. […] A known murine anti-CD19 antibody was used as a positive control. The cells were washed and detected by either a phycoerythrin-labeled anti-human or anti-mouse secondary antibody and analyzed by flow cytometry. The results for binding to the CHO-CD19 cell line, Daudi B cell line, Raji B cell line and an expanded binding set against the Raji B cell line are shown in FIGS. 25A, 25B, 25C and 25D, respectively. […] All results are shown as measured by the geometric mean fluorescent intensity (GMFI) of staining.

[2] = Capillary isoelectric focusing; assay type: physicochemical; conditions: capillary isoelectric focusing kit assay; listed as fucosylated 21D4a
[3] = Differential scanning calorimetry; assay type: physicochemical; conditions: 2.3 μM in PBS pH 7.4, 30 to 95° C. at 1° C./min
Procedure: The thermal stability of the anti-CD19 monoclonal antibodies were compared using calorimetric analysis of their melting temperatures.
Calorimetric measurements of melting Temperatures™ were carried out on a VP-Capillary DSC differential scanning microcalorimeter platform that is combined with an autosampler (MicroCal LLC, Northampton, Mass., USA). Sample cell volume is 0.144 mL. Denaturation data on the glycosylated and deglycosylated forms of the antibodies was obtained by heating the samples, at a concentration of 2.3 μM, from 30 to 95° C. at a rate of 1° C./min. The protein samples were present in phosphate-buffered saline (PBS) at pH 7.4. The same buffer was used in the reference cell to obtain the molar heat capacity by comparison. The observed thermograms were baseline corrected and normalized data analyzed based on a 2-state model, using the software Origin v7.0.

[4] = Chemical denaturation by fluorescence spectroscopy; assay type: physicochemical; conditions: guanidinium hydrochloride in PBS, 24 hours, 2 μM antibody
Procedure: The stability of anti-CD19 monoclonal antibodies were compared by measuring the midpoint of chemical denaturation by fluorescence spectroscopy.
Fluorescence measurements of chemical denaturation were performed on a SPEX Fluorolog 3.22 with a Micromax plate reader (SPEX, Edison, N.J.). The measurements were performed on antibody samples that had been left for 24 hours to equilibrate in 16 different concentrations of guanidinium hydrochloride in PBS buffer. The measurements were made in black, low volume, non-binding surface 384-well plates (Corning, Acton, Mass.) and required 2 μM of antibody in a well volume of 12 μL Fluorescence was excited at 280 nm and the emission spectra were measured between 300 and 400 nm. The scan speed was 1 second per nm and slits were set to 5 nm bandpass. A buffer blank was performed using PBS and automatically subtracted from the data.

Row | Molecule | binding by flow cytometry (GMFI) [1] | observed pI values [2] | Thermo Stability Tm1 [3] | Unfolding Midpoint [4] | Aggregation Peak [4]
1 | 21D4a: human monoclonal anti-CD19 antibody, VH SEQ ID NO: 1 and VL SEQ ID NO: 9 (antibody, listed as Homo sapiens, V domains shown) VH: EVQLVQSGAEVKKPGESLKISCKGSGYSFSSSWIGWVRQMPGKGLEWMGIIYPDDSDTRYSPSFQGQVTISADKSIRTAYLQWSSLKASDTAMYYCARHVTMIWGVIIDFWGQGTLVTVSS VL: AIQLTQSPSSLSASVGDRVTITCRASQGISSALAWYQQKPGKAPKLLIYDASSLESGVPSRFSGSGSGTDFTLTISSLQPEDFATYYCQQFNSYPFTFGPGTKVDIK | bound to the Raji B cell line | 8.44 pH and 8.21 pH | 69.7 °C | 2.97 M | 
2 | 5G7: human monoclonal anti-CD19 antibody, VH SEQ ID NO: 5 and VL SEQ ID NO: 13 (antibody, listed as Homo sapiens, V domains shown) VH: EVQLVQSGAEVKKPGESLNISCKGSGYSFTSYWIGWVRQMPGKGLEWMGIIYPGDSDTRYSPSFQGQVTISADKSINTAYLQWSSLKASDTAMYYCARGVSMIWGVIMDVWGQGTTVTVSS VL: AIQLTQSPSSLSASVGDRVTITCRASQGISSALAWYQQKPGKAPKLLIYDASSLESGVPSRFSGSGSGTDFTLTISSLQPEDFATYYCQQFNSYPWTFGQGTKVEIK | bound to the Raji B cell line |  | 68.5 °C | 2.91 M | 
3 | 5G7-N19K: 5G7 with N-I-S sequence starting at position 19 changed to K-I-S (antibody, V domains shown) VH: EVQLVQSGAEVKKPGESLKISCKGSGYSFTSYWIGWVRQMPGKGLEWMGIIYPGDSDTRYSPSFQGQVTISADKSINTAYLQWSSLKASDTAMYYCARGVSMIWGVIMDVWGQGTTVTVSS VL: AIQLTQSPSSLSASVGDRVTITCRASQGISSALAWYQQKPGKAPKLLIYDASSLESGVPSRFSGSGSGTDFTLTISSLQPEDFATYYCQQFNSYPWTFGQGTKVEIK | bound to the Raji B cell line |  |  |  | 
4 | 5G7-N19Q: 5G7 with N-I-S sequence starting at position 19 changed to Q-I-S (antibody, V domains shown) VH: EVQLVQSGAEVKKPGESLQISCKGSGYSFTSYWIGWVRQMPGKGLEWMGIIYPGDSDTRYSPSFQGQVTISADKSINTAYLQWSSLKASDTAMYYCARGVSMIWGVIMDVWGQGTTVTVSS VL: AIQLTQSPSSLSASVGDRVTITCRASQGISSALAWYQQKPGKAPKLLIYDASSLESGVPSRFSGSGSGTDFTLTISSLQPEDFATYYCQQFNSYPWTFGQGTKVEIK | bound to the Raji B cell line |  |  |  | 
5 | 13F1: human monoclonal anti-CD19 antibody, VH SEQ ID NO: 6 and VL SEQ ID NO: 14 (antibody, listed as Homo sapiens, V domains shown) VH: EVQLVQSGAEVKKPGESLQISCKGSGYTFTNYWIAWVRQMPGKGLEWMGIIYPGDSDTRYSPSFQGQVTISADKSISTAYLQWSGLKASDTAMYYCARQGYSSGWRSYYGMGVWGQGTTVTVSS VL: AIQLTQSPSSLSASVGDRVTITCRASQGISSALAWYQQKPGKAPKLLIYDASSLESGVPSRFSGSGSGTDFTLTISSLQPEDFATYYCQQFNSYPHTFGQGTKLEIK | bound to the Raji B cell line |  |  |  | 
6 | 46E8: human monoclonal anti-CD19 antibody, VH SEQ ID NO: 7 and VL SEQ ID NO: 15 (antibody, listed as Homo sapiens, V domains shown) VH: EVQLVQSGAEVKKPGESLQISCKGSGYTFTNYWIAWVRQMPGKGLEWMGIIYPGDSDTRYSPSFQGQVTISADKSISTAYLQWSGLKASDTAMYYCARQGYSSGWRSYYGMGVWGQGTTVTVSS VL: AIQLTQSPSSLSASVGDRVTITCRASQGISSALAWYQQKPGKAPKLLIYDASSLESGVPSRFSGSGSGTDFTLTISSLQPEDFATYYCQQFNSYPHTFGQGTKLEIK |  |  | 66.4 °C | 2.43 M | 2.16 M
